# Assay results as given in PMC3779320, “Bub3 reads phosphorylated MELT repeats to promote spindle assembly checkpoint signaling” (eLife, 2013).
# Square brackets hold non-standard residues; d marks the D form. Ends that are not written are not given here. pT = C[C@@H](OP(=O)(O)O)[C@H](N)C(=O)O
# T1: Bub1^289–359–Bub3 (Saccharomyces cerevisiae, UniProt P26449+P41695)
# T1 construct: S. cerevisiae Bub1^289–359 and for full length Bub3; GST (N, cleaved yes); made in house; host or cells: E. coli BL21 DE3 plysS
# T1 sequence (P26449 1-341): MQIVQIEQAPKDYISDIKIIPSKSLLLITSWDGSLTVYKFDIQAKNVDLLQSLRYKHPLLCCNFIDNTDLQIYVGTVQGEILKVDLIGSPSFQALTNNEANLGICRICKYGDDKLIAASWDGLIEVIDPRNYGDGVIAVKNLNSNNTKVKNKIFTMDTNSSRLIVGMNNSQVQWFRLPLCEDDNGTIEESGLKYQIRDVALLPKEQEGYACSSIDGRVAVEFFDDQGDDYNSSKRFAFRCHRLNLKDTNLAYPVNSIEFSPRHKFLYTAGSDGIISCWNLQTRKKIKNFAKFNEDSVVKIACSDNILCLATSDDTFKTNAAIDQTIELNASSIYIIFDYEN
# T1 sequence (P41695 289-359): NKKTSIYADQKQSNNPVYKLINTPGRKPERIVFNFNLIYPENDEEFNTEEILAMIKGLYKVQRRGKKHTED
# T2: Bub1^289–359–R314A–Bub3 complex (S. cerevisiae, UniProt P41695 289-359; P26449 1-341, R314A)
# T2 construct: Bub3, S. cerevisiae, full length; Probably GST-tagged on Bub1 and cleaved as the wild type; also called Bub3-Bub1^R314A mutant; Bub3–Bub1^R314A
# T2 sequence (looked up) 1: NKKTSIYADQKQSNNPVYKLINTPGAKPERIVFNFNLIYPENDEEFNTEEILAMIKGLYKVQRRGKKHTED
# T2 sequence (looked up) 2: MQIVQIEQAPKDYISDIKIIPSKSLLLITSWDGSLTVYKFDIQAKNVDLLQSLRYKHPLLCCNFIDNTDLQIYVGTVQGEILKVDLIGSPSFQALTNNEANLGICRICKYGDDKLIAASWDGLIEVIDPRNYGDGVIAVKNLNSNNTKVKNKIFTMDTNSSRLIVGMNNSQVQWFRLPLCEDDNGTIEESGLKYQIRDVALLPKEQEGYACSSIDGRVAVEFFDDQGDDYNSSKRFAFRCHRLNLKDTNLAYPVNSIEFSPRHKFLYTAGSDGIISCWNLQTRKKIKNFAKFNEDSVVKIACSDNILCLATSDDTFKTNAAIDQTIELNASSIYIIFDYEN
# T3: Bub1^289–359–R314A–Bub3 complex (S. cerevisiae, UniProt P41695 289-359; P26449 1-341, R314A)
# T3 sequence 1: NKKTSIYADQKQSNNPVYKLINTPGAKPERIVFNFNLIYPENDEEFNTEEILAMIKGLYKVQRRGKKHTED
# T3 sequence 2: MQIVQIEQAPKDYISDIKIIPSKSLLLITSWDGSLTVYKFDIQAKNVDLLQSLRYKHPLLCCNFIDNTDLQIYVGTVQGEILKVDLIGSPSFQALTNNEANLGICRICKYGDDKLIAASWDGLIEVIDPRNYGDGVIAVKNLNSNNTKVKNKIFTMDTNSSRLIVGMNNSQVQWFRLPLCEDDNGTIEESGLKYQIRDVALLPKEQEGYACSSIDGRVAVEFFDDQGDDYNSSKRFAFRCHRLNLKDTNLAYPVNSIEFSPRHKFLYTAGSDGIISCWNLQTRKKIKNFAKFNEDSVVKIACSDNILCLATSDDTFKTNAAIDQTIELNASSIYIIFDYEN
# T4: Bub3 (S. cerevisiae) (S. cerevisiae, UniProt P26449 1-341)
# T4 construct: Bub3, S. cerevisiae, full length (7-bladed WD40 beta-propeller); The methods tell the construct only for Bub3 co-expressed with Bub1; also called ScBub3; purified Bub3; source: Bub3 alone: purified, expression not described
# T4 sequence (looked up): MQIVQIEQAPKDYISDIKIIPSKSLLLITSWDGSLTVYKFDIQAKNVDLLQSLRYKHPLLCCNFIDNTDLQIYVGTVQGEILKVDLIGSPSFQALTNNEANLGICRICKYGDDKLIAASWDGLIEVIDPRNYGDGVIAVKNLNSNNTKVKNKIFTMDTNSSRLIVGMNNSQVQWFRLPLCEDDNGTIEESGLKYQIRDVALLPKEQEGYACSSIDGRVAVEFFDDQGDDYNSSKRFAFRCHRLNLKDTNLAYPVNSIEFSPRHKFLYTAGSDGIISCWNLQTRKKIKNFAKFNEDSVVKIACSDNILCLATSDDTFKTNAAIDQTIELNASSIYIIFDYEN
# T5: Bub1^289–359–Bub3^R217A complex (S. cerevisiae, UniProt P41695 289-359; P26449 1-341, R217A)
# T5 construct: Bub3, S. cerevisiae, full length, with R217A; also called R217A mutant; source: expressed and purified essentially like the wild type complex (E. coli, GSH-sepharose, PreScission cleavage, SEC)
# T5 sequence (looked up) 1: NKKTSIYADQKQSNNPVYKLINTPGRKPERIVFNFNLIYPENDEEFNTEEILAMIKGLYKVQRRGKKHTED
# T5 sequence (looked up) 2: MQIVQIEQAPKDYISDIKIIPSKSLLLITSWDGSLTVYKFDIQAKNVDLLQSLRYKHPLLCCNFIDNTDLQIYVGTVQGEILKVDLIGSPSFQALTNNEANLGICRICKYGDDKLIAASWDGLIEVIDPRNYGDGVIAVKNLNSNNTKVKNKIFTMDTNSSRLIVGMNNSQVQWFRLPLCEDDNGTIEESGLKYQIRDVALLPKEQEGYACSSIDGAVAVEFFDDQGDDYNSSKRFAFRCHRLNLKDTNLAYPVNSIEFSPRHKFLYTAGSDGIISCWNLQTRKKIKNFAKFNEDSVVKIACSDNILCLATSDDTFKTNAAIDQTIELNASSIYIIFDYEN
# T6: Bub1^289–359–Bub3^R239A complex (S. cerevisiae, UniProt P41695 289-359; P26449 1-341, R239A)
# T6 construct: Bub3, S. cerevisiae, full length, with R239A; also called R239A mutant; source: expressed and purified essentially like the wild type complex (E. coli, GSH-sepharose, PreScission cleavage, SEC)
# T6 sequence (looked up) 1: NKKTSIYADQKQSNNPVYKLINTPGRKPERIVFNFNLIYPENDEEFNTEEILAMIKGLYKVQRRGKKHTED
# T6 sequence (looked up) 2: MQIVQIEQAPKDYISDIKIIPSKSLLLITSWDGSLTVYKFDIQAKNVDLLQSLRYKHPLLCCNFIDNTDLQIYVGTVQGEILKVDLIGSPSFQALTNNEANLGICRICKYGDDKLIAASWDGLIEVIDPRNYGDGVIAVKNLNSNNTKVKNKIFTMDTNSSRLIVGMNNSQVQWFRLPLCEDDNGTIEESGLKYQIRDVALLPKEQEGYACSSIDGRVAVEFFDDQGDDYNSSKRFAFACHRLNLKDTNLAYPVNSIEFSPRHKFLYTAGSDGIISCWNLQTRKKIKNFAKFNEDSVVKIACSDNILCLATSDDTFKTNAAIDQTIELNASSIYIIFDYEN
# Legend:
# [1] = biological target: ScBub1^289–359–Bub3 complex (S. cerevisiae) (UniProt P41695); test: ITC; 25°C, MicroCal ITC200; 20 mM Tris pH7.5, 150 mM NaCl, 1 mM DTE; Bub1^289–359–Bub3 in the cell at 30 µM, titrated with thirty-five 2-µl injections of peptide at 400 µM; single-site binding model
# [2] = biological target: T1, Bub1^289–359–Bub3; test: ITC binding of MELT peptides to Bub1^289–359–Bub3 (wild type); conditions: 25°C, 20 mM Tris pH7.5, 150 mM NaCl, 1 mM DTE, complex 30 µM in cell, peptide 400 µM
# Excerpt: We generated recombinant ScBub1^289–359–Bub3 (where the Bub1 segment is equivalent to the minimal kinetochore targeting region of human Bub1 [[Krenn et al., 2012]]) by bacterial co-expression and purified it to homogeneity (Figure 1D). To assess whether Bub1–Bub3 binds directly to MELT^P sequences, we tested its ability to bind MELT sequences in quantitative isothermal titration calorimetry (ITC) binding experiments. 19-residue synthetic peptides encompassing the sequences of the second and fourth MELT^P motifs of Spc105/Knl1 (indicated as MELT2 and MELT4, respectively), each flanked by four and eleven residues on the N- and C-terminal ends, respectively, were tested (Figure 1C). […] Thus, ScBub1^289–359–Bub3 is sufficient for the reconstitution of tight interactions with two MELT^P peptides in vitro that recapitulate a salient feature of this interaction, its dependency on phosphorylation.
# cDNA sequences coding for S. cerevisiae Bub1^289–359 and for full length Bub3 were subcloned in the first and second cassettes of pGEX-6P-2rbs vector ([Ciferri et al., 2005]). In this construct, the cDNA encoding Bub1^289–359 was sub-cloned in frame with the gene encoding GST and a cleavage site for PreScission protease, and was translated from the first ribosome-binding site (rbs). Untagged Bub3 was subcloned downstream of the second rbs in the same vector. Expression was carried out in BL21 DE3 plysS cells in LB medium by auto-induction with 0.3% lactose at 18°C for approximately 16 hr. Cells were harvested by centrifugation and resuspended in Buffer A (20 mM Tris pH 7.5, 300 mM NaCl, 10% Glycerol, 1 mM DTE, 1 mM EDTA pH 8.0, 1 mM PMSF) typically at a dilution of 3 ml lysis buffer per ml of bacterial pellet. Cells were lysed by sonication, and the lysates were cleared by centrifugation at 75000 × g for 45 min. The resulting clear supernatant was incubated with gentle rotation with 1/50 (vol/vol) of GSH-sepharose slurry (GE Healthcare) for 1–2 hr at 4°C. Beads were washed with 150 vol of Buffer A. To elute the Bub1–Bub3 complex from beads, GST-PreScission protease (0.02 mg/mg of protein target) was added for 16 hr at 4°C. The eluate was concentrated on Amicon Ultra Centrifugal Filters MwCO 3000 (Merck Millipore, Billerica, MA) and further purified by size exclusion chromatography (SEC) on a Superdex 75 16/60 column using GF buffer (20 mM Tris pH 7.5, 150 mM NaCl, 1 mM DTE). The complex eluted in a single peak with apparently stoichiometric amounts of Bub1^289–359 and Bub3 and was subsequently concentrated to ∼10 mg/ml for crystallization or to 2–4 mg/ml for ITC experiments. […]
# Binding isotherm was measured at 25°C by isothermal titration calorimetry on a MicroCal ITC200 device (GE Healthcare, Piscataway, NJ). […]
# [3] = biological target: T7, Bub1^289–359–R314A–Bub3 (Saccharomyces cerevisiae, UniProt P26449+P41695, R314A); assay type: binding; conditions: ITC; Bub3-Bub1^R314A mutant compared to wild type Bub3–Bub1; MELT4^P: data not shown
# T7 construct: S. cerevisiae Bub1^289–359 and for full length Bub3; ITC experiment with the MELT2^P peptide and the Bub1^289–359–R314A–Bub3 complex; GST (N, cleaved yes); made in house; host or cells: E. coli BL21 DE3 plysS
# Excerpt: Such function of Bub1 is probably exerted primarily through its structuring effects on the 4-stranded β-sheet ‘roof’ that dominates the peptide-binding region of Bub3 and which restrains the position of the positively charged residues in the ‘north’ area of the MELT^P-binding site (Figure 4E). Additionally, we observe that Arg314^Bub1, in the β1-β2 loop, contributes to the interaction with the phosphate group of P-Thr172^Spc105/Knl1 (the interaction, however, is only observed in one of the two complexes in the asymmetric unit, and in proximity of a crystal contact) and is therefore directly engaged in the interaction with the MELT2^P peptide. In ITC measurements, we observed a ∼fourfold reduction in the binding affinity of the Bub3-Bub1^R314A mutant for the MELT2^P peptide, in agreement with a role of Arg314^Bub1 is in the interaction of the Bub1-Bub3 complex with MELT2^P (Figure 4F). Similarly, Bub3–Bub1^R314A bound the MELT4^P with ∼threefold decreased affinity compared to wild type Bub3–Bub1 (data not shown).
# Binding isotherm was measured at 25°C by isothermal titration calorimetry on a MicroCal ITC200 device (GE Healthcare, Piscataway, NJ). All samples were extensively dialysed into fresh GF buffer (20 mM Tris pH7.5, 150 mM NaCl, 1 mM DTE). […]
# [4] = biological target: T2, Bub1^289–359–R314A–Bub3 complex; test: ITC; data not shown; method taken from the sentence before it (ITC measurements); conditions: both partners purified
# [5] = biological target: T3, Bub1^289–359–R314A–Bub3 complex; test: ITC
# [6] = biological target: T4, Bub3 (S. cerevisiae); test: ITC; 25°C, MicroCal ITC200; 20 mM Tris pH7.5, 150 mM NaCl, 1 mM DTE; Bub1^289–359–Bub3 in the cell at 30 µM, titrated with thirty-five 2-µl injections of peptide at 400 µM; single-site binding model; conditions: both partners purified
# [7] = biological target: T2, Bub1^289–359–R314A–Bub3 complex; test: as above; conditions: both partners purified
# [8] = biological target: T5, Bub1^289–359–Bub3^R217A complex; test: as above; conditions: both partners purified
# [9] = biological target: T6, Bub1^289–359–Bub3^R239A complex; test: as above; conditions: both partners purified
molecule,measurement,setting,value
MELT2^P peptide (phosphorylated second MELT repeat of Spc105/Knl1),Kd,[1],200 nM
DTVEGEPIDL{PTHR}EYESKPYVPN [MELT4^P],binding (in words),[2],no binding
same,fold reduction in binding affinity,[3],threefold
"GGGPA{pTHR}PKKAKKL [H1^P, Histone H1-derived phosphorylated peptide GGGPA{pTHR}PKKAKKL, AnaSpec catalog number 61741, reference compound]",binding (in words),[2],No binding
same,binding (in words),[2]; listed as unrelated phospho-peptide,did not show any binding affinity
MELT4^P peptide (phosphorylated fourth MELT repeat of Spc105/Knl1),Kd,[1],1300 nM
"DTVEGEPIDL[pT]EYESKPYVPN (Spc105/Knl1, S. cerevisiae, fourth MELT repeat; also called fourth MELT^P peptide; source: synthetic peptide, custom made by GeneScript (95% purity)) [MELT4^P peptide (phosphorylated fourth MELT repeat of Spc105/Knl1)]",fold decrease in affinity against wild type Bub3–Bub1,[4],~3 fold
DPTSMEM[pT]EVFPRSIRQKN (not fully specified),Kd,[5],790 nM
"DPTSMEM[pT]EVFPRSIRQKN (Spc105/Knl1, S. cerevisiae, second MELT repeat with four residues before and eleven after; Met169, Glu170, Met171, P-Thr172, Phe175 are the printed numbers; The end groups are told only for the peptide used for crystallisation; also called MELT^P peptide; Spc105/Knl1 phosphopeptide; source: synthetic peptide, custom made by GeneScript (95% purity))",Kd,[6],2000 nM
same,fold reduction in binding affinity against wild type Bub1^289–359–Bub3,[7],~4 fold
same,Kd,[8],2700 nM
same,Kd,[9],5000 nM
